According to US20140087995A1 (published 2014):
Numbered stars: 1 amine (or outer) side, 2 acyl side, 3 side chain; on linkers, the order of the positions; unused ones are H or OH. Bridge positions count the residues as written; N and C are the ends. Side chains are listed from the residue outwards. Ends that are not written are not given here. * marks the point of attachment. C20 diacid = O=C(O)CCCCCCCCCCCCCCCCCCC(=O)*; γGlu = O=C(O)[C@H](CCC(=O)[*:2])N[*:1]; AEEA = NCCOCCOCC(=O)O

T1: human calcitonin receptor (human, UniProt P30988 25-474)
T1 sequence (looked up): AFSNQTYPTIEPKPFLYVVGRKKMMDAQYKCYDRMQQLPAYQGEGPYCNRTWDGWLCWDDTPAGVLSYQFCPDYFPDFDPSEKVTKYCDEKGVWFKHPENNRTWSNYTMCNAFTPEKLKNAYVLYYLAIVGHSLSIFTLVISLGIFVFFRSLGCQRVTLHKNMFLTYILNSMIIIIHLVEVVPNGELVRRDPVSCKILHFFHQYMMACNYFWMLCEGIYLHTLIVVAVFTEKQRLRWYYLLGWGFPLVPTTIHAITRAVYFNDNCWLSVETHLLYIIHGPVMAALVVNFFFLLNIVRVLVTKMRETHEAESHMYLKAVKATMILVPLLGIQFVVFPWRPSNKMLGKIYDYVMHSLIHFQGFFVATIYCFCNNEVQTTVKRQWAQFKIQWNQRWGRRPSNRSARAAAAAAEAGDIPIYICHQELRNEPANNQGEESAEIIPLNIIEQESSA

B1: N^ε1-[2-[2-[2-[[(4S)-4-carboxy-4-(19-carboxynonadecanoylamino)butanoyl]amino]ethoxy]ethoxy]acetyl]-[Arg17,Pro21,Pro27,Pro34,His35]-h-amylin (peptide)
peptide: K([AEEA-γGlu-C20 diacid])CNTATCATQRLANFLRHSSPNFGAIPSSTNVGPHTY-NH2
modifications: disulfide 2-7; N-terminus assumed
SMILES: CC[C@H](C)[C@H](NC(=O)[C@H](C)NC(=O)CNC(=O)[C@H](Cc1ccccc1)NC(=O)[C@H](CC(N)=O)NC(=O)[C@@H]1CCCN1C(=O)[C@H](CO)NC(=O)[C@H](CO)NC(=O)[C@H](Cc1c[nH]cn1)NC(=O)[C@H](CCCNC(=N)N)NC(=O)[C@H](CC(C)C)NC(=O)[C@H](Cc1ccccc1)NC(=O)[C@H](CC(N)=O)NC(=O)[C@H](C)NC(=O)[C@H](CC(C)C)NC(=O)[C@H](CCCNC(=N)N)NC(=O)[C@H](CCC(N)=O)NC(=O)[C@@H](NC(=O)[C@H](C)NC(=O)[C@@H]1CSSC[C@H](NC(=O)[C@@H](N)CCCCNC(=O)COCCOCCNC(=O)CC[C@H](NC(=O)CCCCCCCCCCCCCCCCCCC(=O)O)C(=O)O)C(=O)N[C@@H](CC(N)=O)C(=O)N[C@@H]([C@@H](C)O)C(=O)N[C@@H](C)C(=O)N[C@@H]([C@@H](C)O)C(=O)N1)[C@@H](C)O)C(=O)N1CCC[C@H]1C(=O)N[C@@H](CO)C(=O)N[C@@H](CO)C(=O)N[C@H](C(=O)N[C@@H](CC(N)=O)C(=O)N[C@H](C(=O)NCC(=O)N1CCC[C@H]1C(=O)N[C@@H](Cc1c[nH]cn1)C(=O)N[C@H](C(=O)N[C@@H](Cc1ccc(O)cc1)C(N)=O)[C@@H](C)O)C(C)C)[C@@H](C)O
notes: analogue of human amylin; also called compound 58
B2: N^ε1-[2-[2-[2-[[(4S)-4-carboxy-4-(19-carboxynonadecanoylamino)butanoyl]amino]ethoxy]ethoxy]acetyl]-[Arg17,Pro21,Pro27,Pro34]-h-amylin (peptide)
peptide: K([AEEA-γGlu-C20 diacid])CNTATCATQRLANFLRHSSPNFGAIPSSTNVGPNTY-NH2
modifications: disulfide 2-7; N-terminus assumed
SMILES: CC[C@H](C)[C@H](NC(=O)[C@H](C)NC(=O)CNC(=O)[C@H](Cc1ccccc1)NC(=O)[C@H](CC(N)=O)NC(=O)[C@@H]1CCCN1C(=O)[C@H](CO)NC(=O)[C@H](CO)NC(=O)[C@H](Cc1c[nH]cn1)NC(=O)[C@H](CCCNC(=N)N)NC(=O)[C@H](CC(C)C)NC(=O)[C@H](Cc1ccccc1)NC(=O)[C@H](CC(N)=O)NC(=O)[C@H](C)NC(=O)[C@H](CC(C)C)NC(=O)[C@H](CCCNC(=N)N)NC(=O)[C@H](CCC(N)=O)NC(=O)[C@@H](NC(=O)[C@H](C)NC(=O)[C@@H]1CSSC[C@H](NC(=O)[C@@H](N)CCCCNC(=O)COCCOCCNC(=O)CC[C@H](NC(=O)CCCCCCCCCCCCCCCCCCC(=O)O)C(=O)O)C(=O)N[C@@H](CC(N)=O)C(=O)N[C@@H]([C@@H](C)O)C(=O)N[C@@H](C)C(=O)N[C@@H]([C@@H](C)O)C(=O)N1)[C@@H](C)O)C(=O)N1CCC[C@H]1C(=O)N[C@@H](CO)C(=O)N[C@@H](CO)C(=O)N[C@H](C(=O)N[C@@H](CC(N)=O)C(=O)N[C@H](C(=O)NCC(=O)N1CCC[C@H]1C(=O)N[C@@H](CC(N)=O)C(=O)N[C@H](C(=O)N[C@@H](Cc1ccc(O)cc1)C(N)=O)[C@@H](C)O)C(C)C)[C@@H](C)O
notes: analogue of human amylin; also called compound 50
B3: N^ε1-[2-[2-[2-[[(4S)-4-carboxy-4-(19-carboxynonadecanoylamino)butanoyl]amino]ethoxy]ethoxy]acetyl]-[His14,Arg17,Pro21,Pro27,Pro31]-h-amylin (peptide)
peptide: K([AEEA-γGlu-C20 diacid])CNTATCATQRLAHFLRHSSPNFGAIPSSTPVGSNTY-NH2
modifications: disulfide 2-7; N-terminus assumed
SMILES: CC[C@H](C)[C@H](NC(=O)[C@H](C)NC(=O)CNC(=O)[C@H](Cc1ccccc1)NC(=O)[C@H](CC(N)=O)NC(=O)[C@@H]1CCCN1C(=O)[C@H](CO)NC(=O)[C@H](CO)NC(=O)[C@H](Cc1c[nH]cn1)NC(=O)[C@H](CCCNC(=N)N)NC(=O)[C@H](CC(C)C)NC(=O)[C@H](Cc1ccccc1)NC(=O)[C@H](Cc1c[nH]cn1)NC(=O)[C@H](C)NC(=O)[C@H](CC(C)C)NC(=O)[C@H](CCCNC(=N)N)NC(=O)[C@H](CCC(N)=O)NC(=O)[C@@H](NC(=O)[C@H](C)NC(=O)[C@@H]1CSSC[C@H](NC(=O)[C@@H](N)CCCCNC(=O)COCCOCCNC(=O)CC[C@H](NC(=O)CCCCCCCCCCCCCCCCCCC(=O)O)C(=O)O)C(=O)N[C@@H](CC(N)=O)C(=O)N[C@@H]([C@@H](C)O)C(=O)N[C@@H](C)C(=O)N[C@@H]([C@@H](C)O)C(=O)N1)[C@@H](C)O)C(=O)N1CCC[C@H]1C(=O)N[C@@H](CO)C(=O)N[C@@H](CO)C(=O)N[C@H](C(=O)N1CCC[C@H]1C(=O)N[C@H](C(=O)NCC(=O)N[C@@H](CO)C(=O)N[C@@H](CC(N)=O)C(=O)N[C@H](C(=O)N[C@@H](Cc1ccc(O)cc1)C(N)=O)[C@@H](C)O)C(C)C)[C@@H](C)O
notes: analogue of human amylin; also called compound 61
B4: N^ε1-[2-[2-[2-[[(4S)-4-carboxy-4-(19-carboxynonadecanoylamino)butanoyl]amino]ethoxy]ethoxy]acetyl]-[His14,Arg17,Pro21,Pro27,Pro34]-h-amylin (peptide)
peptide: K([AEEA-γGlu-C20 diacid])CNTATCATQRLAHFLRHSSPNFGAIPSSTNVGPNTY-NH2
modifications: disulfide 2-7; N-terminus assumed
SMILES: CC[C@H](C)[C@H](NC(=O)[C@H](C)NC(=O)CNC(=O)[C@H](Cc1ccccc1)NC(=O)[C@H](CC(N)=O)NC(=O)[C@@H]1CCCN1C(=O)[C@H](CO)NC(=O)[C@H](CO)NC(=O)[C@H](Cc1c[nH]cn1)NC(=O)[C@H](CCCNC(=N)N)NC(=O)[C@H](CC(C)C)NC(=O)[C@H](Cc1ccccc1)NC(=O)[C@H](Cc1c[nH]cn1)NC(=O)[C@H](C)NC(=O)[C@H](CC(C)C)NC(=O)[C@H](CCCNC(=N)N)NC(=O)[C@H](CCC(N)=O)NC(=O)[C@@H](NC(=O)[C@H](C)NC(=O)[C@@H]1CSSC[C@H](NC(=O)[C@@H](N)CCCCNC(=O)COCCOCCNC(=O)CC[C@H](NC(=O)CCCCCCCCCCCCCCCCCCC(=O)O)C(=O)O)C(=O)N[C@@H](CC(N)=O)C(=O)N[C@@H]([C@@H](C)O)C(=O)N[C@@H](C)C(=O)N[C@@H]([C@@H](C)O)C(=O)N1)[C@@H](C)O)C(=O)N1CCC[C@H]1C(=O)N[C@@H](CO)C(=O)N[C@@H](CO)C(=O)N[C@H](C(=O)N[C@@H](CC(N)=O)C(=O)N[C@H](C(=O)NCC(=O)N1CCC[C@H]1C(=O)N[C@@H](CC(N)=O)C(=O)N[C@H](C(=O)N[C@@H](Cc1ccc(O)cc1)C(N)=O)[C@@H](C)O)C(C)C)[C@@H](C)O
notes: analogue of human amylin; also called compound 68
B5: N^ε1-[2-[2-[2-[[(4S)-4-carboxy-4-(19-carboxynonadecanoylamino)butanoyl]amino]ethoxy]ethoxy]acetyl]-[His14,Arg17,Pro21,Pro27]-h-amylin (peptide)
peptide: K([AEEA-γGlu-C20 diacid])CNTATCATQRLAHFLRHSSPNFGAIPSSTNVGSNTY-NH2
modifications: disulfide 2-7; N-terminus assumed
SMILES: CC[C@H](C)[C@H](NC(=O)[C@H](C)NC(=O)CNC(=O)[C@H](Cc1ccccc1)NC(=O)[C@H](CC(N)=O)NC(=O)[C@@H]1CCCN1C(=O)[C@H](CO)NC(=O)[C@H](CO)NC(=O)[C@H](Cc1c[nH]cn1)NC(=O)[C@H](CCCNC(=N)N)NC(=O)[C@H](CC(C)C)NC(=O)[C@H](Cc1ccccc1)NC(=O)[C@H](Cc1c[nH]cn1)NC(=O)[C@H](C)NC(=O)[C@H](CC(C)C)NC(=O)[C@H](CCCNC(=N)N)NC(=O)[C@H](CCC(N)=O)NC(=O)[C@@H](NC(=O)[C@H](C)NC(=O)[C@@H]1CSSC[C@H](NC(=O)[C@@H](N)CCCCNC(=O)COCCOCCNC(=O)CC[C@H](NC(=O)CCCCCCCCCCCCCCCCCCC(=O)O)C(=O)O)C(=O)N[C@@H](CC(N)=O)C(=O)N[C@@H]([C@@H](C)O)C(=O)N[C@@H](C)C(=O)N[C@@H]([C@@H](C)O)C(=O)N1)[C@@H](C)O)C(=O)N1CCC[C@H]1C(=O)N[C@@H](CO)C(=O)N[C@@H](CO)C(=O)N[C@H](C(=O)N[C@@H](CC(N)=O)C(=O)N[C@H](C(=O)NCC(=O)N[C@@H](CO)C(=O)N[C@@H](CC(N)=O)C(=O)N[C@H](C(=O)N[C@@H](Cc1ccc(O)cc1)C(N)=O)[C@@H](C)O)C(C)C)[C@@H](C)O
notes: analogue of human amylin; also called compound 69

The binders below were run against T1, human calcitonin receptor (assay: cell-based or functional assay).
B1 was tested, and the “hCTR funct. EC50” value was 1.03 nM.
In the case of B2, the “hCTR funct. EC50” value is reported as 0.662 nM.
For B3, the “hCTR funct. EC50” value was 0.554 nM.
For B4, the “hCTR funct. EC50” value was 0.932 nM.
For B5, the “hCTR funct. EC50” value was 1.25 nM.
